The data set can be described thus: label from the status in PepcDB records.
As for “MMAKLVVCIIDGMADPPPPAGGVTPLAAAHTPHCDTLARHSVAGLCHVIQPEAVPGSEAGLSALLCCEAAASIARGPVEALAQGDPVAPHETVWRLNLVSLGPRGNYYNPAPLLDAATETAARKMLDRALGTQGYSLLGGKGFRHLCAGTEPPVLRDGPQDVCGMTPDTGQADLNSYCPRLARAMTEANVLFRRSRMDLAVWPWGAGTMPDLPGFAETTGQTGALAGGVPLARGLALALGMTAPSIAGATGGIDTDLGAKTRAAIALAAGHDVVYLHVEAPDLHAHALDRVAKRRAIERIDAEVVGPLHMALPDATLLITCDHATDCATGRHMAIPVPFILHKPDGPQDGIATFSEAASARTGIRIDSAATLVRLALADLEHHHHHH”, the protein production result is “not failed”. Next, “MMAQRSLFQCESSVDEELDRMEIRTLTRYGENRRRDKGVPIECDCNAKVVVVTSLDPVTTGKLFFSCPYEISDGPGQGCGFKRWWTVALCDEFDMIKEETTEMKKDLEAANKRVESLAEKIFLMEKKFETLEKKYESLNKYL”: “failed”; “MMAVESSKRLASETPVSLFIPYSHHITDTIISTKNAEYLSIWKIDGRSHQSASEEDIFQWARELNNTLRGIASANLSLWTHIVRRRVYEYPDSTFDKMFCYQLDEKYRQSFTGYNLMVNDLYLTVVFQPIADKVMSFFSQHERETLDQKKMRQESCIKALNDINRTLGQSFKRYGGELLGTYEKNGHAYSSALEFLAMLVNGEYSPMPICRDRFADYMSINRPFFSKWGALGELRTTSGIRRFGMMEIKEYDTTTKPGQFNVLLESDFEFVLTQSFSVLSRHAAKDYLQRHQRNLIDARDVATSQIEQIDEALNQLISGHFVMGEHHCTLTIYGDTVQQVRDYMAKANAALLEVAVLPKPVDLAIEAGYWAQLPANWKWRPRPAPITSLNFLSFSSFHNFMSGKPTGNPWGPAVTILKTISKTPLYFNFHASKLEEDATDKRLLGNTAIIGQSGSGKTVLLGFLLAQAQKFKPTTVVFDKDRGMEIAIRAMGGRYLTFKPGRQSGFNPFQLPPTQDNLTFLKQFVKKLAEASSEITHRDEEEINQAVMSIMSSNINPSLRRLSFLLQFLPNPHLNDYNSHPSVHTRLIKWCEGGDYGWLFDNPTDALDLSTHQIYGFDITEFLDNPETRTPVMMYLLYRTEGMISGQRFMYIFDEFWKPLQDPYFEDLAKNKQKTIRKQNGIFVFATQEPTDALESNIAKTLIQQCATYIFLANPKANYEDYTEGFKLTDAEFELIKGIGEFSRQFLIKQGDQSALAELNLGKFHVTIDGKTVEQNFSDELLVLSGTPDNAELVENIIAEVGDDPALWLPVFLQHIKTNRRTT”: “failed”; “MMDSHCRVRAPGAAQPADCPPPTTQHAALAARLGHARLHTLYDQATWSEGPAWWEAQRTLVWSDVVGRRVLGWREDGAVDVLLDATAFTNGNAVDTQQRLVHCEHGRRAITRSEVDGRAHLLVGRFEGKRLNSPNDLIVARDGAIWFTDPPFGLRKPSQGCPGPQELDHHGVYRLPPDGGALQCMVNLDHPNGLAFSPDERVLYVSQTPEGGPGAPEITALDWHDGALHNRRRFAVVPEGLPDGFCVDCQGWLWSSSGAGVCVFDSGGHVLGLVPTPHTASNCTFDLVQRRLFITGGSTLWLLDLQR”: “failed”. The entry for “MMDSVKNASENISRRLSRTWDHISDGWRELVHHGSDALTHFVHRKGEEDKGQEAAASTPAFPRWSILAGDMEETDREIVVRIEVPGMEKKDFEISIEGKTLSLRGEKRFERDTNDSKYHVMERAYGVFQRTLPLPVEVNEDKAEADYKNGVLTVRLPKLNVEKRRFISIS” is “failed”; for “MMELIVAQAAASAAELPFLLLQAAAVVGMVSMLMLLQRHIAFDDVRYKIYYGVVFGATGFLLTLLVSEFIQLPSKPYIRSDLLFLAGVVGSWQGGLISLALISAGRFLFGGPALFGAAFLDMSVISAFGIAIYGWMRRRRLTELGMREIAGVFAIRIFAALFAICLTYGLGMVGQDVFLSNVGRRIVGATVGLPMIACLFLLLRSEARAREAVKKREVAARTDSLTGLPNRRALKDHIEMTTRQAPAVPHALLLIEIVNIADVAAYQGDDWADLFWPKLAREICDGENGLLSKFNDPRSFMFGDATLAVVIEGVSLEKSESAGLVLHLHEGLIAFFRSAEAGPVPHLKIGAANLEMVSHQNVASFLRHLSLALRRSENPVQIFPFSFAEKAARDEGVRQMLVRWIKNGKPPIFYQPKFEIHNRRMIGAEALLRAIDTHGQALSPYYVLEIAERHRLLVEFEWSTIEAVVRDLAELPGLDPDFHLAVNISASSFATACFADRVVALLQEMTVPAHRLSIEVTEMSRMPTTDSVQQNFDTLIAAGVRLALDDFGTGYAALTLLARFPFEEVKIDQWMTSRLDQARFRDAVVLAFESAERYGAKLVTEGIETEEQCRILMQMGIRFGQGYLYSPAVPLDRLLPRRAYA” it is “failed”; for “MMENPQQGLEMRSIVVAYYREQAVSTLVKTLIFIVTLLFIGRSFSEEKNYDMQQLSAQQAYENGRLLRAQFKNLAAREYLKYAADLGEPNAAYLYAMEVANYRTTIRTPPESQHYLLLAAQGGSRQAMRVLYQNGEWLRAAERSLWQQTYYDTLIELGSREPSQAAYELALFHQKDNPKLAQHYLTIAVEFEHPAALMLMAQQIEQGEGSYPMPGSRATEARKTYLKAAQTGYIPAIRNYIQLLENKGKYQDAYYWRQQAVQRGDLTSLVAMGGILSGQSEFYRFVEPDLKQAKAYFNRYLEVAGSDRLSHVYQNSQKQLLDISMQLNGHEKEIAEKIELQLENYQPFFNHDAYWDN” it is “failed”. Next, “MMERFDISAQDLKSFGFTTLFCIVIALATMSIWGGLFGEHLAISFSYGYSAFFSAQWIARRWPELSKRLVNILSLSCAVVLGTSSAYLWLRHYPGFDEFSAYKPIIFLGFIFSAVCFLYFYSHEQKILAQGALEAARRRQSEQEKALLLSQLKQLQSQMEPHFLFNTLANINALIAVEPYKAQLMLEKLTELLRGTMRLRRTNTGDLREEMQLIDAYLGIQKIRLGERLEYTLPELSELGTLGMPPMLIQPLVENAVSHGIEPKAEGGTIRVRIEVADDWFELSVEDNGMGLSDTPKGNGIALQNVRDRLSGLFGHEGLLTVAQNCSGGVTATLRIRLHHLQGLQRSFYDYSQARSPQS”: “failed”; “MMFGAIIQQIVLGISLAAPVGPINIEMLKRGIERGFWHAWVVGIGGMTADILFMLLIYFGLSSLFMYTYVQAFMYCTGFFLLFYLGFQSVKQGISQSNMEYKKEEVGGLKQSFMAGFLIAISNPLNLVFWFGIYGSTLSSLLTKVTKQEAFLYSLCIIVGIILWNVNIAFSVHFGRTLLKQKALGYITAGAGIILVGYSIHFAYKALQLFT”: “failed”; “MMFHEGTNVAGNAELIPIRLFGTPRCEAVRDAFFPSKGFALTAALILAPNQSLSRQYAASLLWENVEQKRALGNLRQLILRLQKLPSEDDAILLTEGNDLKAGALAQRTDLAIFLAGARAEDPMRRLNALLEFGGDLLEGLEAGQDHLYLWLLSERRRLKDLFFSSYTQLLEELTRFGRASSNDIARLAECACKIEPEREETYRAAMAAYARVGNISACEGMYQLLMEQLRQEDRSPEAETVALKRRIQSLAATIAGPVEPEEGSRRQVLAKPRVAFVRPARVDGQPVPTVIHAFVEDVANSLVRYRTFTVLSPHSTFALAHDRVDDSYAMLRADYRIISTVFDDSRMSVALIEDASGEIVWSLEAVLTERHIHAAFRLLSKQVAAALAREIERLQVEPDRNHSGEAYRQLLEGQQLLRGKCDLPLLRRARSLFRKAVDLDHSLAVARARVAQSLQLEWLMLGGNDPHLLHRAKAEADASVEIDPALGVGHWMCAVVALYQRDFDISAEKFFEAEALAPNSADLLLQHADALAHFGDAEIAWDKFQQAINLNPLAPDIYWWAGASIAFKRQDYGTAVELCGRMENDEPALRVLTASHALHGDLLAARESGSRLQENYPGMTAREISSLSPDRDPIANERFYHALRLAGIK”: “failed”.

With “MMFNYIYTTFLTILYTVVMSLSLSLYLKEREKNYLLVSLYFLLLILNGLIVTMSETFQIFANDYNQQFMVNPIIETIYYLATFGIALKLVTELFEEKITTYQYGIYIVFALWLIVVPFMANSALKVWLYYFPSQLLTVYLGIYLLIHNRKMIPKSSLGKYVKLIGSLAIFFGLAIVVEDTFIIYFRDIYHTNMLKIHNRNVSEDIFHISLCLIAIKYFLTNYQKSNEEVAVIDIRNEKKETNDSVSNFEEDEYYFERFMDKYGITQREGEILELLLQRKHNQEIANQLYLSLGTVKTHTHNIFIKLQVEKRSEVCEVWEAFEKSELTQ”, the protein production result is “failed”. As to “MMGDSVIYYVEQADEPVNRADERARKTFKYFWRELFWERRRIISALDFAMVKVPFFQDGEDGEICEHMWIDDIYFDGLYIYGVLNNEPGELTNVEQGESVCVPVDDISDWMFVCNGIPYGGFTIQAMRGQMTEEERTEHDAAWGIDFGDPGQILLVYEEKEHPENLEEHPMCRNCIDDFRQQLSQNSDYLREQDEDGYTPLHHEAIAGNALMVQAMLEYGANPASTTSEGYTALDFACLTGWQNVADLLEPRH”, the protein production result is listed as “failed”. On to “MMIKIIREMPHGVAALCLIQAFSTFSYAVQYSSLALFITKQLGIANLSANSIVGLFLSFSYIFQLIGGVIGSRFISNRLLFVTTILIQNMGLFFLAQANPSLLNIGLSLFMVGSGLNVTSSNSMLTQCFIPQDDRRESAFFLSYAGMNVGYCIGYIACGFFDYSNQYQYLLYASILTNSIALLIIIKNWAYLGDKNFPLPNLTKRNWYFIKNILAIAFITFLIPFMRVCFEFANFCNGLVIITCLFMFLIIFILGLKQKSSSDRKKMMAYLILAISSVLFWMIYLTGPMGVTLFVKNNVDKHLFSFELATQWIKNINPVVIIFGAPIMSMLINKLKAKGFHVSAPVQFSCSFVFLALSFLCLIFGIICSNSYGYISIYWIIGHHILQGMSELLLGPVGYALIGRIAPPKLQGILMGTWMLVIGVAASFSQYFSNAMVQSESVDPLITNQDFLTAFKQLGLWSLLCAALLYFVSGKLTRIINGTKDNKSVNESKALPMPYSN”, for which the protein production result is given as “failed”. Next, “MMIMNNFDEKKLIQEFSKIQSELSPRIKLENNFQIEEIQFIAGVDLAYWNVNKTKYGTCCIVIIDYGTKEVVEKVYSYGEIPIPYIPGFLAFRELPLIIEAVKKLTKQPDIYFFDGNGYLHYRHMGIATHASFLLNKPTIGVAKSYLKIRDVDFIMPENLKGSYTDIVINNEVYGRTLRTTKNVKPIFVSCGNWIDLDTSTEIVMNCINNESRLPIPVRLADLETHKMRKKLMEGLEHHHHHH”: “failed”; “MMKNKVNIDTIIYLVLIITSLIFIYAGSFLFEEGSFIGNRGNNRTVDADTATDRNKPFPVVHKAVSTEINGIKQKINILEIDLSSGGVKIKPALAFDTIYGFQSLKDIAINNNAYAAVNAGFFYSYGEPSGMVVIDGKVYTKSTGKYPVFVVQGKNAFLSEIKSNIWILHGNRRIAADDINREGKPGETVVYTPVFGPTNRADKLHTSYIVENNRVARKFRGDTECKIPSDGMVITFYEPISSEEKFEVGDWIGIDIDPDFGPGFQAYECGSWLVRDGQVVAVDRDDWVGLLTNRDPRTAIGVKHDGKVVLVTVDGRQPGYSVGLSSRELAGYLLTLGIKDAAMLDGGASTQMIVQNKTVNRLPARERMLGGGIVVVVDEDL”: “failed”; “MMKRVAVTGAAGRVGTLLRPLLRSHFEHLSLIDLQEPDELGENENFVRADFTKLDEATAALKDIDGVIHLAGIASGTDMNAILHANVLGTYNLYEAARINKVQRVVYASSNHATGFYPRGQLVSPLDPMRPDSPYGLSKCWGELVAGLYYDTSGIRSLSIRIGNAGTYPNSERSIAIWISARDLAQLVRIGLSHPLIAATVVYGVSDTEEKWWENDLATRLGYQPQDRPRDHALIEEGSEGPVALAFQGGGFCEINHDGTIRMRDADGLAKSPETVE”: “failed”.

(Values after a protein production outcome set (Wang et al. 2014).)
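Further: failed if final PepcDB status was selected cloned or expressed and not failed if soluble or beyond.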
